Data on four molecules can be found in patent US10501502B2, “Allophycocyanin alpha-subunit evolved labeling proteins (smURFPs)” (The Regents of the University of California, priority 2016, dated 2019).

“Also recorded” adds a separate entry of the source.

Data set [1] can be described thus: BV or BVMe2 concentration in plasma, in vitro. The conditions noted are these: 10 μM, 37° C., up to 1,440 min.
Protocol: Whole blood was collected via abdominal aorta and placed in tubes with lithium heparin (BD, No. 365971) on ice. Tubes were centrifuged to remove red blood cells, and plasma was stored on ice for 30 min. Clarified plasma was combined and aliquoted into 9×70 μl aliquots and placed on ice. The following nine experiments were performed: starting plasma (1) and plasma+10 μM BV (2-5) or BVMe2(6-9) at time 0 at 4° C. and 15, 60, and 1,440 min at 37° C. Reactions were stopped by freezing at −80° C. Plasma samples were thawed, diluted 4× with cold 50% ACN, 48% water (H2O), and 2% acetic acid, and centrifuged for 14 min at 4° C. Reverse-phase high performance liquid chromatography (HPLC) was performed on an Agilent 1100 Series HPLC on a Phenomenex Luna C18(2) reverse-phase column 100 Å, 250 cm×21.20 mm I.D. 10 μm reverse-phase column (00G-4253-P0 AX), with a 21 min, 10-90% H2O:ACN (0.05% trifluoroacetic acid, TFA) gradient and a flow rate of 1 ml/min into a diode array detector and MSD-Ion Trap (Agilent LC/MSD trap XCT).
Data set [2] relates to HEK293A cells. Description: Fluorescence imaging of FPs in HEK293A cells with chromophore addition or HO-1 expression. The format is cell-based. From the text: smURFP codons were optimized for human cell expression, and the gene was created by GenScript. smURFP, TDsmURFP (created from mammalian-optimized smURFP), IFP1.4 (mammalian-optimized form^35), IFP2.0 (mammalian-optimized form^46), and iRFP713 (mammalian-optimized form^36) were PCR amplified using Phusion High-Fidelity DNA Polymerase (NEB) with primers containing 5′ HindIII and 3′ XhoI restriction enzyme sites. HindIII-HF and XhoI (NEB)-digested PCR fragments were gel purified (Zymoclean Gel DNA Recovery Kit) and were ligated (T4 DNA Ligase, Life Technologies) into a similarly digested pCDNA3-IRES-eGFP vector (bicistronic to express two FPs in the same cell). For creation of HO-1-expressing mammalian vec-tors, the Synechocystis HO-1 was used, and the codons were not optimized for mammalian expression. Synechocystis HO-1 was directly amplified from the pBAD vector using primers containing 5′ BsiWI and 3′ XbaI restriction enzyme sites. pCDNA3 smURFP, TDsmURFP, IFP1.4, IFP2.0, or iRFP713-IRES-eGFP vectors were digested with BsiWI and XbaI (NEB), dephosphorylated (SAP, Roche), gel purified (Zymoclean Gel DNA Recovery Kit), and ligated (T4 DNA Ligase, Life Technologies) with similarly digested, purified HO-1 PCR fragment. For creation of smURFP fusions, smURFP was PCR amplified using Phusion High-Fidelity DNA Polymerase (NEB) with primers containing 5′ AgeI and 3′ NotI restriction enzyme sites for N-terminal fusions or with primers containing 5′ AgeI and 3′ BspEI restriction enzyme sites for C-terminal fusions. mGeos2-VEL-ManII-N-10 (Addgene 57551) and Dronpa-PDHA1-N-10 (Addgene 57292) vectors were digested with AgeI and NotI (NEB) and mCherry-αTubulin-C-18 (Addgene 55148) and tdTomato-LaminB1-10 (Addgene 58107) were digested with AgeI and BspEI, dephosphorylated (SAP, Roche), gel purified (Zymoclean Gel DNA Recovery Kit), and ligated (T4 DNA Ligase, Life Technologies) with similarly digested, purified smURFP PCR fragment. HEK293A (Invitrogen, Life Technologies), HT1080 (ATCC), and PC3 (ATCC) cells were grown in Dulbecco's Modified Eagle's medium (DMEM, Corning), supplemented with 10% FBS (Atlanta Biologicals)+1×penicillin—streptomycin (Fisher Scientific), which is referred to as growth media, on poly-D-lysine-coated glass-bottom culture dishes (MatTek, No. P35G-0-14-C). The HEK cell line is listed in the ICLAC and NCBI biosample databases and is commonly misidentified as the HeLa cell line. For expression of exogenous fluorescent proteins, there is no problem if there is a contaminating cell line because no endogenous biology or therapeutic results are being determined. HEK293A cells were purchased from Invitrogen (Life Technologies), and all experiments are derived from the same expanded frozen stock without cell line authentication or mycoplasma detection. Cells were transfected using 2 μg of circular DNA+5 μl Lipofectamine 2000 (Life Technologies) in 2 ml Opti-MEM (Life Technologies) for 4-5 h, transfection media was discarded, and prewarmed growth media was added. Chromophores (5 mM in DMSO) were added at indicated concentrations to growth media, warmed for 10-15 min at 37° C., and added to cells. For multiple timepoints, incubations were staggered to maintain equivalent incubation. Prior to imaging, cells were washed 1×2 ml growth media, 2×2 ml imaging solution, and imaged in 2 ml imaging solution. Fluorescence imaging was performed on a Zeiss Axiovert 200M inverted microscope controlled by SlideBook software. FPs were imaged with the following settings: eGFP, EX/EM=495(10)/535(25) nm, tdTomato EX/EM=540(25)/595(50) nm; mCherry and mCardinal, EX/EM=580(20)/653(95) nm; smURFP and TDsmURFP, EX/EX=628(40)/680(30) nm; and IFP1.4, IFP2.0, and iRFP713, EX/EM=665(45)/725(50) nm. […]

Data set [3] is described as follows: FP purification and fluorescence characterization in vitro (spectra, extinction coefficient, quantum yield). The format is physicochemical. Here is the method:
FP genes were expressed on a pBAD vector (Life Technologies) with a polyhistidine tag on the C terminus, cells were lysed with B-PER (Thermo Scientific), and purified using Ni-NTA (Qiagen) puri-fication. PCB (HO-1+PcyA) and BV (HO-1) incorporation in Escherichia coli was performed simultaneously during constitu-tively active FP expression. Extinction coefficient was determined by PCB or BV absorbance as described35,36 (Table 3, smURFP+BV and TDsmURFP+BV, and Table 2) or calculated for the apoproteins by determining the protein concentration by the BCA protein assay (Pierce), and a specific chromo-phore concentration was added (specified in the Purification of FP lacking chromophore and in vitro chromophore incorporation section) to get 1 and 2 chromophore species (Table 5, not including (Escherichia coli)). When FP chromophore (PCB or BV) was expressed in Escherichia coli, the PCB and BV Q band had absorbance that overlapped with detection of BCA or Bradford assay of 562 nm and 592 nm, respectively. We used the previously published protocols35,36, where there was no change of the BV absorbance at 390 nm when free in solution or attached to the FP. smURFP+BV denaturation with 1 M urea caused no change in the BV absorbance at 390 nm, but the Q band was reduced ˜20-fold. Therefore, the extinction coefficient of BV at 390 nm was used to calculate the concentration of holoprotein (FP+PCB or BV) concentration.
(§1) EX and EM spectra were obtained using SPEX Fluorolog fluorometer (Horiba). Absorbance spectra were obtained using UV-VIS Spectrophotometer Cary Eclipse (Varian) or UV-2700 (Shimadzu). Quantum yield was determined relative to Cy5. Incorporation rates of BV on 0.5 μM smURFP was performed by addition of smURFP to PBS alone or with 20% fetal bovine serum (FBS) and mixed by pipetting in a quartz cuvette. Chromophore was added last, mixed by pipetting, and fluorescence was recorded using SPEX Fluorolog fluorometer (Horiba). Photobleaching was characterized on bubbles of purified FP or Cy5 within mineral oil using light from a 150 W xenon arc lamp with 100% light through EX/EM=628(40)/680(30) nm for smURFP, TDsmURFP, and Cy5 or EX/EM=665 (45)/725 (50) nm for IFP 1.4 focused with a 40×, 1.2 numerical aperture C-Apochromat oil-immersion lens on a Zeiss Axiovert 200M inverted microscope. Photobleaching times were normalized to reflect an initial illumination intensity producing 1,000 photons per fluorescent molecule per second as previously described^37.
HO-1 was removed by digesting the pBAD vector (Life Technology) with MscI and PmeI (NEB). smURFP and TDsmURFP were expressed and purified as described above. No chromophore was present on smURFP and TDsmURFP (confirmed by UV, fluorescence imaging, and MS). For predominant fluorescent species+2 chromophores, a ten-fold excess of chromophore was added to smURFP and TDsmURFP. For predominant fluorescent species+1 chromophore, a quarter concentration of chromophore was added to smURFP and TDsmURFP. Chromophore was added in PBS+10% FBS at 37° C. overnight. smURFP+chromophore and TDsmURFP+chromophore were purified using NiNTA (Qiagen) to remove excess or noncovalently attached chromophore.

Data set [4] can be described thus: In vitro photobleaching of bubbles of purified FP or Cy5 in mineral oil. It counts as physicochemical. Here is the method: as §1
The nature of data set [5]: Native PAGE quaternary structure / stoichiometry. It counts as physicochemical. Here is the method:
Native PAGE was run using NativePAGE Novex Bis-Tris Gel System (Life Technologies) on Native PAGE 4-16% Bis-Tris protein gels (Life Technologies). SDS-denaturing PAGE was run using NuPAGE MOPS SDS running buffer (Life Technologies) and NuPAGE Novex 4-12% Bis-Tris gels (Life Technologies). Precision Plus Protein Dual Color Standards (Bio-Rad) were used as an MW ladder. Zinc blot was performed after running the SDS-PAGE gel using the described method^44. Fluorescence was imaged using a BioSpectrum AC Imaging System (UVP) with EX/EM=535(45)/605(70) nm for tdTomato, EX/EM=650(13)/690(50) nm for smURFP and TDsmURFP, EX/EM=685(40)/710LP nm for IFP1.4 and BV+zinc.

The subject of data set [6] is Escherichia coli. In words: Fluorescence of FPs expressed in Escherichia coli. It counts as cell-based. The settings on record: expressed in E. coli with HO-1. On the procedure:
TeAPCα gene (codons optimized for Escherichia coli) was made by GenScript. Mutations were placed by random mutagenesis using GeneMorphII Random Mutagenesis Kit (Agilent Technologies). Screens for mutants that fluoresce with PCB or BV were performed by subcloning into a pBAD vector (Life Technologies) that expressed cyanobacteria Synechocystis HO-1 and Synechocystis PcyA genes for PCB production and Synechocystis HO-1 only for BV production, as previously described^34. Libraries were expressed in TOP 10 Electrocompetent Escherichia coli cells (Life Technologies) with addition of 0.2% arabinose to LB agar plates (FPs were constitutively expressed in Escherichia coli). Fluorescence was imaged on plates using a BioSpectrum AC Imaging System (UVP) with EX/EM=628(40)/690(50) nm for FPs+PCB, EX/EM=685(40)/710LP nm for rounds 4 and 5 FPs+BV, and EX/EM=650(13)/690(50) nm for Cy5-like FPs+BV (rounds 6-12). At round 6, 5-10 of the brightest colonies on each plate were combined in LB+0.2% arabinose, grown ˜18 h, mixture of plasmid DNA was purified, and TOP10 cells were transformed and plated on LB agar plates+0.2% arabinose. Fluorescence was screened on plates (as described above), 10-20 of the brightest colonies were screened in liquid culture fluorescence (FIG. 7a-e), plasmid DNA was purified, and DNA was sequenced. The plasmid DNA of 2-3 of the brightest FPs was chosen for mutagenesis for the subsequent round. When choosing DNA for subsequent mutagenesis rounds, genes with increased and/or novel silent DNA mutations were chosen over other DNA that had the same DNA and/or protein sequence of the previous round. Site-specific mutagenesis was performed using QuikChange Lightning Mutagenesis Kit (Agilent Technologies) to create smURFP (C4S mutation) and smURFP C52S.

As to `C=CC1=C(C)/C(=C/C2=NC(=C\c3[nH]c(/C=C4\NC(=O)C(C)=C4C=C)c(C)c3CCC(=O)O)/C(CCC(=O)O)=C2C)NC1=O` [BV, biliverdin, reference compound], in data set [1], the “stability in plasma in vitro” value is on record as “slower degradation; also recorded: significantly degraded”. Also, in data set [2] (3.5 h), the “fluorescence with 25 μM BV at pH 6.4 relative to BV at pH 7.5” value is “increased fluorescence three-fold”. The “fluorescence with protonated BV (pH 6.4) relative to BVMe2” value in data set [2] (pH 6.4) is “five-fold less”. The “quantum yield (QY)” value in data set [3] was 0.013%.
In the case of Cy5 [reference compound], in data set [4] (excitation intensity yielding 1,000 photons per s), the “in vitro photobleaching t50%” value turned out to be 22 s. In data set [4] (time to bleach 50% from an initial emission rate of 1,000 photons per s), the “In vitro photostability t50%” value is given as 22 s. Besides, in data set [3] (Table 5), the Emission Maximum was 670 nm, the Excitation Maximum is 649 nm, the Extinction Coefficient is given as 250,000 ^ m^−1cm^−1/chromophore and the Quantum Yield was determined as 25%. Moreover, in data set [3] (Table 5), the “molecular brightness relative to eGFP” value turned out to be 186%.

B1: R4-1: evolved APCα FP, SEQ ID NO: 5, with BV (protein)
chain: MKTGEQRVKIATLLSENEKKIVDKASQDLWRRRPDFIAPGGIAFSQRERALCLRDYRWYLHLITFCLLAGDKDPIESIGLIGIREMYNSLGVPVPGMMESIRCLKEASLSLLDEEDAKETAPYFDYIIKAMS
modifications: biliverdin chromophore; smRUFP Variant Polypeptide
As to B1, in data set [5], the “quaternary structure on native gel” value is on record as “tetramer”. Besides, in data set [3], the “extinction coefficient (EC)” value is listed as 93,000 M^−1cm^−1 and the “quantum yield (QY)” value is 9.0%. In data set [3] (Table 4), the “Molecular Brightnes Relative to smURFP” value is 26%. In data set [3] (evolved APCα FPs, Table 4), the “Emission Maximum” value is 674 nm, the “Excitation Maximum” value was 647 nm, the “Extinction Coefficient” value was 93,000 M^−1 cm^−1 and the “Quantum Yield” value is recorded as 9.0%.

B2: R10-10: evolved APCα FP, SEQ ID NO: 11, with BV (protein)
chain: MKTCEQRVNIATLLTENKKKIVDKASQDLWRRHPDLIAPGGIAFSQRDRALCLRDYGWYLHLITFCLLAGDKGPIESIGLIGIREMYNSLGVPVPAMMESIRCLKEASLSLLDEEDANETAPYFDYIIKAMS
modifications: biliverdin chromophore; smRUFP Variant Polypeptide
Consider B2, for which, in data set [6], the “fold brighter than R4-1” value is listed as 8.3 fold. Further, the “quaternary structure on native gel” value in data set [5] is given as “homodimer”. In data set [3], the “extinction coefficient (EC)” value is on record as 200,000 M^−1cm^−1 and the “quantum yield (QY)” value came to 15%. Moreover, the “Molecular Brightnes Relative to smURFP” value in data set [3] (Table 4) is 93%. Further, in data set [3] (evolved APCα FPs, Table 4), the “Emission Maximum” value is given as 672 nm, the “Excitation Maximum” value was determined as 646 nm, the “Extinction Coefficient” value is on record as 200,000 M^−1 cm^−1 and the “Quantum Yield” value is recorded as 15%.
